What all share (conditions): modification not given
Assay [1] deals with NaV1.2 (Rattus norvegicus), P04775.
In assay [2] the target is NaV1.4 (Rattus norvegicus), P15390.
In assay [3] the target is NaV1.7 (Rattus norvegicus), O08562.
Chain of NaV1.7 (Rattus norvegicus), O08562 (O08562 whole entry): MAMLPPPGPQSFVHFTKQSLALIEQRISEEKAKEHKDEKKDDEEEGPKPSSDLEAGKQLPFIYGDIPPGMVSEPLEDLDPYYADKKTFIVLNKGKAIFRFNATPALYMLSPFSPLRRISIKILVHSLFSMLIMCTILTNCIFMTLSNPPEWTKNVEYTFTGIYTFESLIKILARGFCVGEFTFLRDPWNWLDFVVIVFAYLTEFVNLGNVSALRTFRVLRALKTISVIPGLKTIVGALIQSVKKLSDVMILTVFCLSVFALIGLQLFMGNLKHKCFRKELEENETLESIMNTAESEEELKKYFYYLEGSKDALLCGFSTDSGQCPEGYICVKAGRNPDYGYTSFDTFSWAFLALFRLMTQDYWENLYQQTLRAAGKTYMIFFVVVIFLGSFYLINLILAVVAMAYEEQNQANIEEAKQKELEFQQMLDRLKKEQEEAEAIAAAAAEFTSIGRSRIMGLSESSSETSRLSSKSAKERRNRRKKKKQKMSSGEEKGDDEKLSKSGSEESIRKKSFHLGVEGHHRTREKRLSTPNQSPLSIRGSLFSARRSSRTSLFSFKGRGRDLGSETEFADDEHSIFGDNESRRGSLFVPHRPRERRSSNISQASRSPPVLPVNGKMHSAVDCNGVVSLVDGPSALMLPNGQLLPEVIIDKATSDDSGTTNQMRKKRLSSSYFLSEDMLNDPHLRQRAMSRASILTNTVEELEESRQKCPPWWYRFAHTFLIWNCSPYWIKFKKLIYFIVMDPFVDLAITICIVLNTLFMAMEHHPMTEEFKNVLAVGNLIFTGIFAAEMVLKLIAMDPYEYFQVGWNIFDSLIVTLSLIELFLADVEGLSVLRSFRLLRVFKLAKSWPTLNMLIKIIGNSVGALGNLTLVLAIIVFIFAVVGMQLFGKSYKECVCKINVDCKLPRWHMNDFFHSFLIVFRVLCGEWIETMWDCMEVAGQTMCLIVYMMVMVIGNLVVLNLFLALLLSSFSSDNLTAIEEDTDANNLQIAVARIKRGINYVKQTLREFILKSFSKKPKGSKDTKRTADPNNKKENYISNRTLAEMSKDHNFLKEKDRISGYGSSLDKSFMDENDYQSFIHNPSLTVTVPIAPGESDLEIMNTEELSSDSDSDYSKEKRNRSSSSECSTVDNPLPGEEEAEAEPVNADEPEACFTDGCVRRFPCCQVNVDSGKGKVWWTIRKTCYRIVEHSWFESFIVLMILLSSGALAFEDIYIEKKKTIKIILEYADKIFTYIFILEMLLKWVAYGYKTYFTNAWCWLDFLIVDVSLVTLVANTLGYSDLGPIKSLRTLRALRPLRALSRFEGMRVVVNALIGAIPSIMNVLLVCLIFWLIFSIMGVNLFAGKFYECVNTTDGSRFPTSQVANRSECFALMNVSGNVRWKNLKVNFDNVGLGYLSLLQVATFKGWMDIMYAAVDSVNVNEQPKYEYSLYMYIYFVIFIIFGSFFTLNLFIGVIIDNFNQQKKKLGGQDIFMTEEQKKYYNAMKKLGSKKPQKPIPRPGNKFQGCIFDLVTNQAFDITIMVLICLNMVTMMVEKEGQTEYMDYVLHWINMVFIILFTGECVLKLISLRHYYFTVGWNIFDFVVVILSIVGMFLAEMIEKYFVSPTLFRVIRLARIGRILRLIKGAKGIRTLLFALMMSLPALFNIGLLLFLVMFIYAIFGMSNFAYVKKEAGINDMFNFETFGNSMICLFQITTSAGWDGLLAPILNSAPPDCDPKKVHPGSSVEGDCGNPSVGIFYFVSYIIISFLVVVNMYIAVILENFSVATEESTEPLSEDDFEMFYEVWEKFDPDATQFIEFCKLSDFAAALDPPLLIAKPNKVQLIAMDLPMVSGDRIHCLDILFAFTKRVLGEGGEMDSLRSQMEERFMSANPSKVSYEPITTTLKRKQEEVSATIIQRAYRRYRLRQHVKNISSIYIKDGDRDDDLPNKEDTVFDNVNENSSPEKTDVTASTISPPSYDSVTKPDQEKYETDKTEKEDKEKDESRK

Chain of NaV1.2 (Rattus norvegicus), P04775 (P04775 whole entry): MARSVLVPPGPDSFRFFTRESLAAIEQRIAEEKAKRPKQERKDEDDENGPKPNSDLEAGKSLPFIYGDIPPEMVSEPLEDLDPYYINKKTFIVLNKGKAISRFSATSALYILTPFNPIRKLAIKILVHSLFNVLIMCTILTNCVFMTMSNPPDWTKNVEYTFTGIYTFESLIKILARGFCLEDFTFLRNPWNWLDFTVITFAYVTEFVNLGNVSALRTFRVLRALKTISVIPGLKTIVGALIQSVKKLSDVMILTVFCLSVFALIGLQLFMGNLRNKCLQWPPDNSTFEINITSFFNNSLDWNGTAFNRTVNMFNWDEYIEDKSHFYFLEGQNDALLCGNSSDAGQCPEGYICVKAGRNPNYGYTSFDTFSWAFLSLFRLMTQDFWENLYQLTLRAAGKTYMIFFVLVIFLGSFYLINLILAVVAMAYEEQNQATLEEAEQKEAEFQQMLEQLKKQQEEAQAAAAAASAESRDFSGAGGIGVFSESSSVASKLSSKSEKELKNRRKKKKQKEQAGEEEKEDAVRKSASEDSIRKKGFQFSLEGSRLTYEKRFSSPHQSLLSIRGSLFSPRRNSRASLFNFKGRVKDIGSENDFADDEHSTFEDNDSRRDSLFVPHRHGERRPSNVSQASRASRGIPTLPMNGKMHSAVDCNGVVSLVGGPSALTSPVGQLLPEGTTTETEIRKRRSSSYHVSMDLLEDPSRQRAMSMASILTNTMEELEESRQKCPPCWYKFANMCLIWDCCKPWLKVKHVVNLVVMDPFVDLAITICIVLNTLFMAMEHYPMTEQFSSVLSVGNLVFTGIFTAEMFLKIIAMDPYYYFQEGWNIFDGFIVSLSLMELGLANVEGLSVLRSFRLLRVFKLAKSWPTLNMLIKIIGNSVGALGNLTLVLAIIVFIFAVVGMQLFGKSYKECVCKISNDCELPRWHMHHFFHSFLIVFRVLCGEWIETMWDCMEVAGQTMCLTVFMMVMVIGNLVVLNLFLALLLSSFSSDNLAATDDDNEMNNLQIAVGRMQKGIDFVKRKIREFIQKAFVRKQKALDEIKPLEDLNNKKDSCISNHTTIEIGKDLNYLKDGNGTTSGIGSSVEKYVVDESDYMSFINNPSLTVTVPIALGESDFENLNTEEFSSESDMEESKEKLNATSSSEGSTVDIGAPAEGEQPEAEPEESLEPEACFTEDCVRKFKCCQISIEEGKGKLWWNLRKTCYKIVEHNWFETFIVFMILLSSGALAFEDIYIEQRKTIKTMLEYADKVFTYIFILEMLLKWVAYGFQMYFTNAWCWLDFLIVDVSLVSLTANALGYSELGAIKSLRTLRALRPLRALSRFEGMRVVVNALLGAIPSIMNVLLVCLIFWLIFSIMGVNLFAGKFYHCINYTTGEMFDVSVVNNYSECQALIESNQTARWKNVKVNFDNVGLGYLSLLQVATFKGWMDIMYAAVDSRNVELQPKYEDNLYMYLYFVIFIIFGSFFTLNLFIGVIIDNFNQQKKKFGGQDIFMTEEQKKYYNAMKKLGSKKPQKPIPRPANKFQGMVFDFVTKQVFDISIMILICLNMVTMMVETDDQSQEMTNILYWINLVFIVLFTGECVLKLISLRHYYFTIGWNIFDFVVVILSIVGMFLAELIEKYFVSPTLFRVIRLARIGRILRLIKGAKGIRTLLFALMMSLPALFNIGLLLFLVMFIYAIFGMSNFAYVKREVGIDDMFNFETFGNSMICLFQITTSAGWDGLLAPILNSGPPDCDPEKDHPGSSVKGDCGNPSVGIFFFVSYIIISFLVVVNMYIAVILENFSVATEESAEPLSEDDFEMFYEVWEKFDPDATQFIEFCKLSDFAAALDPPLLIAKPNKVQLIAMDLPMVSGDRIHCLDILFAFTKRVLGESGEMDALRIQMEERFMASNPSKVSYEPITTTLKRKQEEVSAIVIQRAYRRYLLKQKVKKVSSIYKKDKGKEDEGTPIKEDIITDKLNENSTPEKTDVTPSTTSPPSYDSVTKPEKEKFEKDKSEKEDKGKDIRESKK

B1: μ-conotoxin KIIIA-P2, P0C195 (peptide)
chain: CCNCSSKWCRDHSRCC
Regarding B1, the Kd (commonly a measure of binding affinity in units of concentration) was found to be 230 nM in assay [1], 830 nM in assay [2] and 1570 nM in assay [3].

For the origin of these results see publication PMC4131687.
